The results in this text go back to US20210072228A1 (UT BATTELLE, published 2021).

The data set concerns the molecule itself. Kind of data set: size exclusion chromatography (homodimerization) of GFP-tagged PAN domain purified from HEK293 cells. An excerpt: These cysteine residues coordinate three disulfide bridges to form a hairpin structure. The inventors hypothesized that cysteine rich PAN domain of G-lecRLKs form disulfide bonds involved in dimerization and subsequent receptor proteolysis to prevent downstream signaling cascades. To address this hypothesis, a GFP tagged PAN domain construct of RLK5 was made. In addition, mutated amino acids in the RLK5 vestigial domain were restored to consensus PAN domain amino acids based on the alignment in FIG. 1, this construct was designated RLK5-restored (RLK5R). Both RLK5 and RLK5R constructs were transfected and overexpressed in HEK293 cells. Proteins were purified on GFP column and loaded into size exclusion column (SEC) to analyze the oligomeric state.
A general note: In gel filtration, larger molecules generally elute earlier.

B1: GFP tagged PAN domain construct of RLK5 (SapurV1A.0037s0270.1) (receptor)
chain: DSDYNMDTYEHTFLYGIYPPNEAIIIASLQQCREVCMQDPGCTAATFTNDGTSQCRMKTSPYFSGHQNPSLSSISFVKT
notes: It was expressed in HEK293 cells and purified on a GFP column; not shown: GFP tag
For B1, the binding result is “no binding”.
